Sequences and labels used below:
B1: CsSCPL11-IA (Camellia sinensis var. sinensis) (protein)
chain: ELPFKLETGYALIYIRVNESELFYYFIESQGNPQEDPIFLWLPGGPGCSSFHELVYGFGMVKILIVKTASIIFLDAPVGTGFSYSRTADGWPTSDSKSAEQSYQFLREWFDEHPQYLAVQLFVGKGNKDGVKPFMNLKGYLLGSPRTDSVIDENSKVVFAHRMALISDEIYENAKTGCNDTYVSIDPANTACIVALGNIKTCIKDLFRNDILEPKCVFATPDPGEEPAARRSLEEGPSDFLLSPPMIPNLWCRNFNYVLSYIWSNDDTVQEVLHVRKGSVLNWERCNKSLSYTKDILTVVPVHEELKELGLEVLVETGDRDMVVPFVGTVKWIKSLNLTVVNDWRPWFVDGQVAGYTIKYSEHGYRLTYATVKGAGHTAPEYYRMECYYMFDRWIHYYPI
notes: N-terminal 50 residues (transmembrane region) deleted, Met inserted; His-tag (pDEST17); E. coli; nickel resin, partially purified; full protein 450 residues, 51 kD
B2: CsSCPL14-IA (Camellia sinensis var. sinensis) (protein)
chain: SVDDSELFYYFIESEGNPQEDPLFLWLTGGPGCTSFSGLLYEVGPMEYDIDNYTGGLPKLKYYPYARTKTASMIFLDAPVGTGFSYARTPGGWPTSDTKSAEQSYQFLRKWLVEHPQFLSVQLFVGGDSYAGLTVPLITKKIIDGNKEKAKPYMNIKGYLVGCPGTDSVIDGNSRVDFAHRMALISDEIYENAKRSCNENYINVDPANTACITAMGAIQKCLKDLSDKDILKPKCDLSSQDHPEGPDRRFLKEGSSEFLLSPSTFPKPWCTTLKLTHNSIWANDDGVQEALHVRKGTVPRWERCNNSLSYTQDVLSVIAVHKELSRSSLEVLVERFFIFFLLLPAANRPSLPSRPPDNLTHHS
notes: N-terminal 50 residues (transmembrane region) deleted, Met inserted; His-tag (pDEST17); E. coli; nickel resin, partially purified; full protein 413 residues, 46 kD
B3: CsSCPL13-IA (Camellia sinensis var. sinensis) (protein)
chain: MVQVEAIAASQKQLLQKPSCAWIRWVQNHLLLQLLLAQPVLGGQIVKYLPGFDGELPFKLETGQLKSDDGFVVDFDRYISVDDSELFYYFIESEGNPQEDPLFLWLTGGPGCTSFSGLLYEVGPMEYDIDNYTGGLPKLKYYPYARTKTASMIFLDAPVGTGFSYARTPGGWPTSDTKSAEQSYQFLRKWLVEHPQFLSVQLFVGGDSYAGLAVPLITKKIIDGNKEKAEPYMNIKGYLVGCPGTDSVIDGNSRVDFAHRMALISDEIYENAKRSCNENYINVDPANTACITAMGAVQKCLEDLSDKDILKPKCDLSSQDHPEGPDRRFLKEGSSEFLLSPSTFPKSWCTTLKLTHNSIWANDDGVQEALHVRKGTVPRWERCNNSLSYTKDVSSVIAVHKELSRSSLEVLVESGDHDISVPYMGTLKWIKSLNLTLVDDWRPWFVDNQVAGYTMKYSEEHGYHLTFATIKGAGHPAPEYYRRECYCLFDRWINYNPV
notes: full length, His-tag (pDEST17); E. coli; nickel resin, partially purified; 498 residues, 56 kD

We go through three proteins from paper PMC7330524, “Genome-Wide Analysis of Serine Carboxypeptidase-Like Acyltransferase Gene Family for Evolution and Characterization of Enzymes Involved in the Biosynthesis of Galloylated Catechins in the Tea Plant (Camellia sinensis)” (Frontiers in Plant Science, 2020).

Substrate in one data set: Oc1cc(O)c2c(c1)O[C@H](c1cc(O)c(O)c(O)c1)[C@H](O)C2
Put plainly: purified protein. To be noted: 0.4 mM PGG as donor, potassium phosphate pH 6.0, 30 °C.
For B1, the Km is 40.67 ± 5.56 µM, the Vmax was determined as 13.2 µmol/min/mg, the kcat is 219 s⁻¹ and the kcat/Km was 5.39e+06 M⁻¹ s⁻¹.
With B2, the Michaelis-Menten constant (Km) came to 103.38 ± 15.63 µM, the Vmax stood at 62.5 µmol/min/mg, the kcat is 1040 s⁻¹ and the kcat/Km came out at 1.01e+07 M⁻¹ s⁻¹.
The matching figures for B3: 49.73 ± 8.36 µM, 20.4 µmol/min/mg, 340 s⁻¹ and 6.84e+06 M⁻¹ s⁻¹.

Substrate in a further data set: O=C(OC[C@H]1O[C@@H](OC(=O)c2cc(O)c(O)c(O)c2)[C@H](OC(=O)c2cc(O)c(O)c(O)c2)[C@@H](OC(=O)c2cc(O)c(O)c(O)c2)[C@@H]1OC(=O)c1cc(O)c(O)c(O)c1)c1cc(O)c(O)c(O)c1
Put plainly: HPLC galloyltransferase assay, Lineweaver-Burk. The settings on record: 1.0 mM EGC as acceptor, potassium phosphate pH 6.0, 30 °C. The data set is classed as biochemical, Camellia sinensis.
Turning to B1, the Km is 13.34 ± 1.78 µM, the Vmax came out at 4.05 µmol/min/mg, the kcat amounted to 67.5 ± 7.34 s⁻¹ and the kcat/Km worked out at 5.06e+06 ± 970000 M⁻¹ s⁻¹.
In the case of B2, the Km turned out to be 20.81 ± 3.51 µM, the Vmax amounted to 10.6 µmol/min/mg, the kcat came to 177 ± 22.8 s⁻¹ and the kcat/Km came to 8.52e+06 ± 1.38e+06 M⁻¹ s⁻¹.
On the same counts, the results for B3 are 10.43 ± 1.25 µM, 3.67 µmol/min/mg, 61 ± 8.82 s⁻¹ and 5.85e+06 ± 840000 M⁻¹ s⁻¹.

Substrate in a further data set: Oc1cc(O)c2c(c1)O[C@H](c1ccc(O)c(O)c1)[C@H](O)C2
Put plainly: HPLC galloyltransferase assay, Lineweaver-Burk. To be noted: 0.4 mM PGG as donor, potassium phosphate pH 6.0, 30 °C. It counts as biochemical, Camellia sinensis.
Consider B1, for which the Km was determined as 85.39 ± 10.62 µM, the Vmax came to 16.1 µmol/min/mg, the turnover number (kcat) came out at 269 ± 22.8 s⁻¹ and the kcat/Km worked out at 3.14e+06 ± 640000 M⁻¹ s⁻¹.
On the same counts, the results for B2 are 64.28 ± 0.81 µM, 20 µmol/min/mg, 333 ± 35.2 s⁻¹ and 5.19e+06 ± 480000 M⁻¹ s⁻¹.
On the same counts, the results for B3 are 160.41 ± 21.2 µM, 37 µmol/min/mg, 617 ± 62.5 s⁻¹ and 3.85e+06 ± 420000 M⁻¹ s⁻¹.
